Reference: the nanobody polyreactivity screen of Harvey et al. (2022)

Assay: yeast display, Sf9 membrane polyspecificity reagent, FACS + sequencing; frameworks hold sequencing errors
Method in brief: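 A nanobody's polyreactivity label depends on the gate it was sorted from. Yeast display cells were stained with 10% biotinylated, detergent-solubilized Sf9 membrane reagent for 1 hour at 4 °C, enriched on streptavidin microbeads and sorted by FACS. The low and high (top ~1%) gates were set on anti-HA fluorescence for expression and streptavidin fluorescence for reagent binding.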

Sequence | polyreactivity (PSR sort gate)
QDQLVESGGGLVQAGGSLRLSCAAYGSTFERYVMGWYRQAPGKDRELVADINSGGSTNYADSVKGRFTISRDNAKNTVYLQMNSLKPEDTAVYYCAKDGWGGWWFPYRVKYGYWGQGSQVTVSS | low polyreactivity
QDQLVESGGGLVQAGGSLRLSCAPSGFIFEYNAMGWYRQAPGKESELVADISFSGGSTYYADSVKVRFTISRDNAKNTVYLQMKSLKPEDTAGYYCAARALASVSAHKYDYWGQGTQVTVSS | low polyreactivity
QDQLVESGGGLVQAGGSLRLSCAPSGRTFYSYAMGWYRQAPGKERELVATIDSGGRTNYADSVKGRFTISRDNAKNTVYLQMNSLKPEDTAVYYCAASVWNWYFGIRYDYWGQGTQVTVSS | high polyreactivity
QDQLVESGGGLVQAGGSLRLSCAPSGSIFYTNAMGWYRQAPRKERHLVAAISWGGGSTYYADSVKGRFTISRDNAKNTVYLQMNSLKAEDTAVYYCAARYYVYQQGFRSHVTKHYDYWGQGTQVTVSS | low polyreactivity
QDQLVESGGGLVQAGGSLRLSCDASGSTFYRYDMGRSRQAPGKERELFAAINQSGDSTYYADSVKGRFTISRDKAKNTVYLQMNSLKPEDTAVYYCAAVRSRYLAFYYWGQCTQVTVSS | low polyreactivity
QDQLVESGGGLVQAGGSLRLSCHSSGFIFTDYAMGWYRQAPGKERELVARITSGGASTYYADSVKGRFTISRDIAKNTVYLQMNSLKPEDTAVYYCAAQARCWGYVYWGQGTQVTVSS | low polyreactivity
QDQLVESGGGLVQAGGSLRLSCPASGFTFERNTMGWYRQAPGKERELVAVITRRGGNTNYADSVKGRFTISRDNAKNTVYLQMNSLKPEDTAVYYCAAYYSHYGTRYDYWGQGTQVTVSS | high polyreactivity
QDQLVESGGGLVQAGGSLRLSCSASGRIFYYYTMGWYRQEPGKERELVAAISSGGSTNYADSVKGRFTISRDNAKNTVYLQMNSLKPEDTAVYYCNVELTTVGHWYYYRPGYDYWVQGTQVTVSS | low polyreactivity
QDQLVESGGGLVQAGGSLRLSFAASVSTFTTYAKGWYRQAPGKERELVAAIDWSDGSITYYADSVKGRFTISRDNAKNTVYLQMNSLKPEDTAVYYCAKDNSQYGWGYDYWVQGTQVTVSS | low polyreactivity
QDQLVESGGGLVQAGGSLRLTCAASGFTFRRNAMGWYRQAPGKERELVAAISSRGGSTYYADSVKGRFTISRDNAKNTVYLQMNSLKPEDTAVYYCAAYYVPWGTLYHLDYWGQGTQVTVSS | high polyreactivity
QDQLVESGGGLVQAGRSLRLSCAASGSIYAFYAMGWYRQAPRKERELVAAISSRGGRTYYADSVKGRFTISRDNAKNTVYLQMNRLKPEETAVYYCAALYWRYLGYPVVRYYYWGQGTQVNVSS | high polyreactivity
QDQLVESGGGLVQAGRSLRLTCAASGSIIPGNAMGWYRQAPGKERELVAVIDFSGASTYYADSVKGRFTISRDNAKNTVYLQMNSLKPEDTADYWGQGTQVTVSS | low polyreactivity
QDQLVESGGGLVQAGVSLRLSCAASGIISSDNAMGWYRQAPGKERELVAAITVSGGSTYYADSVKRRFTISRDNAKNTVYFQMNSLKPEDTAVYYCAADYSLEYGFDYWGQGTQVSVSS | low polyreactivity
QDQLVESGGGLVQAVGSLRLSCAASGSIFSFNAIGWYRQAPGKERELVAVITQRGGSTYYADSVKGRFTISRDNAKTTVYLQMNSLKPEDTAVDYCAARTPRGYYYWGQGTQVTVSS | high polyreactivity
QDQLVESGGGLVQEGRILRLISADSGRISRFNAMGWYRPAPGKERELVAAITRGASTYYADSVKGRFTISRDNAKNTVYLEMNSVKPEVTAVYYCAAAPSYSWTSVARYFYWGQGTQVPVSS | high polyreactivity
QDQLVESGGGLVQSGGSLRLSCAASGSILWSYAMGWYIQAPGKERELVAANTSGGSTYYADSVKGRFTISRDNAKNTVYLQMNSLKPEDTAVYFCAADRWRDFWFNEEYWGQGTQVTVSS | high polyreactivity
QDQLVESGGGLVQSGGSLRLSCAASGYIFGPYAMGWYRQAPGKEREFVATISGSVGSTYYADSVKGRFTISRDNGKNTVYLQMNSLKPQDTAVYYCNKDHSVYGYEYWGQGTQVTVSS | low polyreactivity
QDQLVESGGRLVQAGGSLRLSCAASGRTFYYYAMGWYRQAPGKERELVARIRSGGSTNYADSVKGRFTISRDNAKNSVYLQMNSLKPEDTAVYYCNALGAKGYVKGFDYWGQGTQVTVSS | low polyreactivity
QDQLVESGGVLVQAGGSLRLSCAASGSIFGYYAMGWYRQAPGKERELVARISYSGGTTYYADSVKGRFTNSRDNAKNTVYLQMNSQIPEDTAVYYCNARIPYSWRYGYWGQGTQVTVSS | high polyreactivity
QDQLVESGRGLVEAGGSLRLSCAASGRILGRYAMGWNRQAPGKERELVAAISRSGGTTYYADSVKGRFTISRDNAKNTVYLEMNSLKPEDTAVYDCARLRVYAAVYDYWGQGTQVTVSS | high polyreactivity
QDQLVESGVGLVQAGGSLRLSCAASGFTFTRNAMGWYRQAPGKEREFVAAITRSGGSTYYADSVKGRFTISRDNAKNTVYLQMNSLKPEDTAVYYCAAEVSSFLYTPSYSTDDYWGQGTQVTVSS | high polyreactivity
QDQLVESRGDLVQAGGSLRLSCAASGSIFYDYAMRWYRQAPGKERELVAASDSGRNTTYADSVKGRFTISRDNAKKTVYFQMNSLKPEATAVYYCKTDPGWFDDSPPDPYIYGGYDYWGQGTQVTVSS | high polyreactivity

Sequence | polyreactivity (PSR sort gate)
QDQLVESRGGIVQAGGSLRLSCAASGSTFRLYAMGWYRQAPGKERELVAAISSGGTTKYADSVKGRFTNSRDNAKNTVYLQMNSLTPEDTAVYYCNAVYHWGNPGEYATLPRYDYWGQGTQVNVSS | high polyreactivity
QDQLVESRGGLVQAGGRLRLSCAASGSIFASNTIGWYRQAPGKEREVVAGITKIGSSTYYADSVKGRFTISRDNAKNTVYLQMNSLKPEDTAVYYCNAYGPNIYSARYDYWGQGTQVTVSS | low polyreactivity
QDQLVESRGGLVQAGGSLRLSSAASGFTLVVNAMGWYRQAPGKERELVAAITSRCGGTYYADSVKGRFTISRDKANNSVYLQMNSLKPEDTAVYYCAAPSLIVSTHRYGYWGQGTEVTVSS | low polyreactivity
QDQLVESVGGLDQAGGSLRLSCAASGRIFVHNAMGWYRQAPGKEREFVAAISLRGGSTYYADSVKGRFTISRDNAKNTVYLQMNSLKTEDTAVYYCAAVPAHFYGFDYCGQGTQVTVSS | low polyreactivity
QDQLVESVGGLDQAGGSLRLSSAASGRTFWWNAMGWYRQAPGKERELVAVISYSGGSTYYADSVKGRFTISRDNAKNTVYLQMNSLKPEDTAVYYCAAATRVRGFTEYYWGQGTQVTVSS | high polyreactivity
QDQLVESVGGLVQAGGSLRLSCAASGNTFRSYVLGWYRQAPGKERELVADISSGDGTNYADSVKGRFTISRDNAKNTVYLQMNSLKREDTAVYYCAKDVYNFRTTHSYFTGYDSWGQGTQVTVSS | low polyreactivity
QDQLVESVGGVVQAGGSLRLSCAASGRIIRTYAMGWYRQAPGKERELVATISYSSGRTYYADSVKGRFTISRDNAKNTVYLQMNSLKPEDTAVYYCARRRRSGSRQYYYWGQGTQVTVSS | high polyreactivity
QDQLVESVVGLDQAGVSLRLSSAASGRTFRKYAMGCSRQAHGKERELVAAITSSGARTYYADSVKGRFTISRDNAKNTVYLQMNSLKPEDTAVYYCNAVSPYYGIEFEYWGLGTQVTVSS | high polyreactivity
QDQLVETAGGLVQAGVTHTLSCAASAFTFRNYAMGWYRQAPGKESEFVAAISRRGGSTYYADSVKGRFTISRDNAKNTVYLQLNCLKPEDTAVYYCATEPGKQNTYRMDYWGQGTQVTVSS | high polyreactivity
QDQLVETGGGLVQAGVSLRISCAASGSTFYYNAMGWYRQAPGKERELVAAITWSGDSTYYADSVKGRFTISRDNAKNTVYLQMNSLKPEDTAVYYCNAEYYDYFDYVSDYWGQGTQVTVSS | low polyreactivity
QDQLVVSGGGLVHAGGSLRLSCAASGRIFHAYGMGWYRQAPGQERELVAAITWRGVSTYYADSVKGRFTISRDNAKNTVYLQMNSLKPEDTAVYYCAARVTPGRNGGGYWGQGTQVTVSS | high polyreactivity
QEQLEESGGGLVQAGGSLRLSCAASGFTLGRYAMGWYIQAPGKERELVAAINSSGGRTYYADSVNGRFTISRDTAKNTVYLQLNSLKPEDTAVYYCATVNVRGPPYDFWGQGTQVTVSS | high polyreactivity
QEQLHESGGGLVQAGGSLRLSCAASGTISYAGPIGWDRQAPGKAREFVAGIGVGSNTNYADSVKGRFTIIRDNAKNTVYLQMNSLKPEDTAVYYCAVGGYAPLGRPYWGQGTQVTVSS | low polyreactivity
QEQLQESGGGLVQAGGSLRLSCAASGYISQSSVMGWYRQAPGKEREFVASISYGATTYYADSVKGRFTISRDNAKNTVYLQTNSRKPEDTAVYYCAVWVKRGFSHRYWGQGTQVTVSS | high polyreactivity
QEQLQESGGGQVQAGGSLLLSCAASGNIIRYYYMGWYRQAPGKERELVAAITYGTSTNDADSVKGRFTISRDNAKNTVYLQMNSLKPEDTAVYYCAVDVNYGDPLDNWGQGTQVTVSS | high polyreactivity
QEQLQESGGGQVQAGGSLLLSCAASGNIIRYYYMGWYRQAPGKERELVAAITYGTSTNYADSVKGRFTIRRDNAKNTVYLQMNSLKPEDTAVYYCAVDVNYGDPLDNWGQGTQVTVSS | high polyreactivity
QEQLQESGSGLVQAGGSLRLSCAASGNIFRDWVMGWYRQAPGKERELVAAISPGAITYYADSVKGRFTISRDNAKNTVYLQTNSLKPEDTEVYYCAAYYIVEYLHGYWGQGTRVTVSS | low polyreactivity
QEQLQESGSGLVQAGVSLRLSSAASGNIVQDWVMGWYRQAPGKERELVAAISPGAITYYADSVKGRFTISSDNAKNTVYLQTNRLNPEDTAVYYCAAYYIVEFLHGYWGQGTRVTVSS | low polyreactivity
QEQLQGSGGGLVQAGGSLRLTCAASGYIFQNVPMGWNRQAPGKERQLLAGIDNGTSTNYADSVNGRFTISRDNAKNTVYLQMNSLKPEDTAVYYCAAAGQADDTLGYWGQGTQVTVSS | low polyreactivity
QEQLVESGGGLVQAGGSLRLSCAATGLTITDYAMGWYRQAPGKERELDAGINTRGTSRYSADSVKGRFTISRDNAKNTVYFQMFSLNPEDTAVYYCDSEYFGYWYGIQYDYWGQGTQVTVSS | high polyreactivity
QEQLVESGGGLVQAGGTLRLSSAASVNTISPNAMGWYRQPPGKERELVAAIDSRDGIRYYADSVKGRFTISRDNAKNTVYLQMNSLKPEDTAVYYCAPDEWYGESNYWGQGTQVTVSS | low polyreactivity
